# Experimental data as given in publication PMC13041742, “Nonlinear stiffness of NompC gating spring and its implication in mechanotransduction” (Science Advances, 2026).
# Biological target: the molecule itself
# Test: negative-stain EM with 2D class averaging; purified NompC-Δ12; raw micrographs and 2D class averages
protein,measurement,value
"NompC-Δ12 (complex, Drosophila, UniProt E0A9E1 1-1732, looked up, NompC (no mechanoreceptor potential C), Drosophila, NP_001245891.1, lacking the N-terminal 12 ankyrin repeats (amino acids 126 to 533); Full-length NompC with an internal deletion of residues 126-533; also called truncated NompC-Δ12; NompC complex with the N-terminal 12 ARs removed; not shown: SpyTag, N-terminal, kept; enhanced green fluorescent protein (after a 3C cleavage site), C-terminal, …) MSQPRGGRGGGRGGGVGRKTPSSLTGPPDESATPSERATPASKADSDPKDDSSSNGDKKDMDLFPAPKPPSAGASIRDTANKVLGLAMKSEWTPIEAELKKLEKYVANVGEDGNHIPLAGVHDMNTGETPLHMACRACHPDIVRHLIETVKEKHGPDKATTYINSVNEDGATALHYTCQITKEEVKIPESDKQIVRMLLENGADVTLQTKTALETAFHYCAVAGNNDVLMEMISHMNPTDIQKAMNRQSSVGWTPLLIACHRGHMELVNNLLANHARVDVFDTEGRSALHLAAERGYLHVCDALLTNKAFINSKSRVGRTALHLAAMNGFTHLVKFLIKDHNAVIDILTLRKQTPLHLAAASGQMEVCQLLLELGANIDATDDLGQKPIHVAAQNNYSEVAKLFLQQHPSLVNATSKDGNTCAHIAAMQGSVKVIEELMKFDRSGVISARNKLTDATPLQLAAEGGHADVVKALVRAGASCTEENKAGFTAVHLAAQNGHGQVLDVLKSTNSLRINSKKLGLTPLHVAAYYGQADTVRELLTSVPATVKSETPTGQSLFGDLGTESGMTPLHLAAFSGNENVVRLLLNSAGVQVDAATIENGYNPLHLACFGGHMSVVGLLLSRSAELLQSQDRNGRTGLHIAAMHGHIQMVEILLGQGAEINATDRNGWTPLHCAAKAGHLEVVKLLCEAGASPKSETNYGCAAIWFAASEGHNEVLRYLMNKEHDTYGLMEDKRFVYNLMVVSKNHNNKPIQEFVLVSPAPVDTAAKLSNIYIVLSTKEKERAKDLVAAGKQCEAMATELLALAAGSDSAGKILQATDKRNVEFLDVLIENEQKEVIAHTVVQRYLQELWHGSLTWASWKILLLLVAFIVCPPVWIGFTFPMGHKFNKVPIIKFMSYLTSHIYLMIHLSIVGITPIYPVLRLSLVPYWYEVGLLIWLSGLLLFELTNPSDKSGLGSIKVLVLLLGMAGVGVHVSAFLFVSKEYWPTLVYCRNQCFALAFLLACVQILDFLSFHHLFGPWAIIIGDLLKDLARFLAVLAIFVFGFSMHIVALNQSFANFSPEDLRSFEKKNRNRGYFSDVRMHPINSFELLFFAVFGQTTTEQTQVDKIKNVATPTQPYWVEYLFKIVFGIYMLVSVVVLINLLIAMMSDTYQRIQAQSDIEWKFGLSKLIRNMHRTTTAPSPLNLVTTWFMWIVEKVKARMKKKKRPSLVQMMGIRQASPRTKAGAKWLSKIKKDSVALSQVHLSPLGSQASFSQANQNRIENVADWEAIAKKYRALVGDEEGGSLKDSDAESGSQEGSGGQQPPAQVGRRAIKATLADTTK",stoichiometry N,4
